Measurements from article PMC7969019 (Nucleic Acids Research, 2020).
Where no end group is shown, it is not given here. [ ]: non-standard residue; d: D form. pT = C[C@@H](OP(=O)(O)O)[C@H](N)C(=O)O; pS = N[C@@H](COP(=O)(O)O)C(=O)O

T1: human TFIIH p62 residues 1-158 (tandem PH and BSD1 domains) (human, UniProt P32780 1-158)
T1 sequence (looked up): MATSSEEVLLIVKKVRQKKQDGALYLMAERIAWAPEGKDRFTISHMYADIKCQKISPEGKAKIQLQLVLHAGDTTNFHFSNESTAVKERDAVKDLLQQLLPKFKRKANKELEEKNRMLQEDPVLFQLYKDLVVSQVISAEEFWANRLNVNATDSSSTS

B1: XPC (residues 124-142) (peptide, UniProt Q01831 124-142, looked up)
peptide: EEEEESENDWEEVEELSEP
B2: Ser46- and Thr55-phosphorylated p53 (residues 41-62) (peptide, UniProt P04637 41-62, looked up)
peptide: DDLML[pS]PDDIEQWF[pT]EDPGPDE
B3: UVSSA (residues 399-419) (peptide, UniProt Q2YD98 399-419, looked up)
peptide: AEEDEDDEDFVEVPEKEGYEP
B4: TFIIEα (residues 378-439), acidic domain (domain or fragment, UniProt P29083 378-439, looked up)
chain: EEDEEEDDEFEEVADDPIVMVAGRPFSYSEVSQRPELVAQMTPEEKEAYIAMGQRMFEDLFE

Biological target: T1, human TFIIH p62 residues 1-158 (tandem …)
Assay: NMR titration

Binding result, binds:
B1
B2
B3
B4
